Results from article PMC2918618, “Characterization of the TnsD-attTn7 complex that promotes site-specific insertion of Tn7” (Mobile DNA, 2010).
Substitutions are numbered along the chain they refer to.

Columns and labels:
Assay in all cases: EMSA; Gel-shift buffer not given (as described in ref. 6); TnsD stored in 500 mM KCl, 50 mM Tris-HCl pH 8.0, 1 mM EDTA, 2 mM DTT, 25% glycerol
Details in all cases: protein: recombinant; tags: intein-chitin tag, cleaved with DTT
TnsD A497I = target: T1, TnsD A497I (Escherichia coli (transposon Tn7), UniProt P13991 1-508, A497I)
T1 sequence: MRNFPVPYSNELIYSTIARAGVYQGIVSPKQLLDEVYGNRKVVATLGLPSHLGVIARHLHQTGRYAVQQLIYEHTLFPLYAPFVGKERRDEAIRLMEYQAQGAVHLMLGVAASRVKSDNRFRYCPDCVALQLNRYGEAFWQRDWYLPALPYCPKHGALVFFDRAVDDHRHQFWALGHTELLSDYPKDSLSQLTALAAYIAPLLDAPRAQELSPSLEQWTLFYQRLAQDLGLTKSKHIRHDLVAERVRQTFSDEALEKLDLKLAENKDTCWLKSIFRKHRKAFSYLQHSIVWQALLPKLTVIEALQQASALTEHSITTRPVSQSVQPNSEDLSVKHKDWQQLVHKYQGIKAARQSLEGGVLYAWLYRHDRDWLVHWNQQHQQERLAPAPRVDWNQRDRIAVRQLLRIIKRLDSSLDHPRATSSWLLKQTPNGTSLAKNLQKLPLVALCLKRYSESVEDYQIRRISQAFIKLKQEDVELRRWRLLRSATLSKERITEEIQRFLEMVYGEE

TnsD A486H = target: T2, TnsD A486H (Escherichia coli (transposon Tn7), UniProt P13991 1-508, A486H)
T2 sequence: T1 sequence with A486H, I497A

TnsD G109E = target: T3, TnsD G109E (Escherichia coli (transposon Tn7), UniProt P13991 1-508, G109E)
T3 sequence: T1 sequence with G109E, I497A

TnsD wt = target: T4, TnsD wt (Escherichia coli (transposon Tn7), UniProt P13991 1-508)
T4 sequence: T1 sequence with I497A

B1: attTn7 wt (+23 to +58) (dsDNA)
DNA 1: CCGCGTAACCTGGCAAAATCGGTTACGGTTGAGTAA
DNA 2: TTACTCAACCGTAACCGATTTTGCCAGGTTACGCGG
binding signal (TnsD A497I): 0.05 relative to wt
binding signal (TnsD A486H): 0.1 relative to wt
binding signal (TnsD G109E): 0.05 relative to wt
binding signal (TnsD wt): 1 relative to wt
